Positions of bridges follow the written chain, without caps; N, C: chain ends. No end group written: not given here. COCH2 = acetyl group that carries the bridge

For the assay, the target named is T1, Recombinant Human FGFR1 alpha (IIIc) Fc Chimera Protein (Homo sapiens, UniProt P11362).
T1 construct: purchased R&D systems 658-FR-050
T1 sequence (P11362 with tags, fused parts or gaps limits assumed): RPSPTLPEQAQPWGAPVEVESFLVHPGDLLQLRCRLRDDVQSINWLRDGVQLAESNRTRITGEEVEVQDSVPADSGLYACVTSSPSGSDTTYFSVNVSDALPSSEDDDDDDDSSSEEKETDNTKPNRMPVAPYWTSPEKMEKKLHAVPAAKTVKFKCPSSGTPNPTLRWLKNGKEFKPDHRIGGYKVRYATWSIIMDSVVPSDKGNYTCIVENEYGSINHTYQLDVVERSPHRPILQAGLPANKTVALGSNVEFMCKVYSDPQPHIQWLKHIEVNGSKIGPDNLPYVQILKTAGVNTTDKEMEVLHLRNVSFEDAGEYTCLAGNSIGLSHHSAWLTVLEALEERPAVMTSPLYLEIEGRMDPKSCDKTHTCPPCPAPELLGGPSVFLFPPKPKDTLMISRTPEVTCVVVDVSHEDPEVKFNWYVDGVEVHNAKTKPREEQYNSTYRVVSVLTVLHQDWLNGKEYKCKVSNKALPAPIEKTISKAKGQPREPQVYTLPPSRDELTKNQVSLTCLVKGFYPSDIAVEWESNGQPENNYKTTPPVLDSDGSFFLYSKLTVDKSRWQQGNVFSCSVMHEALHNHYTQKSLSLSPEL
As to the kind of experiment: ELISA binding affinity of enzymatically synthesized peptide to FGFR. The settings on record: ELISA luminescence signal at 10 nmol/L peptide, SEQ ID NO: 239 standardized to 1; enzyme synthesis product. The protocol:
The binding affinity of the peptide to FGFR was evaluated using an ELISA method.
The peptide used for the evaluation was enzymatically synthesized by the following method.
First, a fusion peptide (SEQ ID NO: 25) in which a translation enhancing sequence (SEQ ID NO: 22), a peptide, a Myc tag (SEQ ID NO: 23), and a HiBiT tag (SEQ ID NO: 24) were linked in this order was designed. Next, a template DNA sequence (SEQ ID NO: 26) was designed in which a T7 promoter sequence, a Shine-Dalgarno sequence, a sequence necessary for transcription and translation initiation, such as a start codon (ATG), was provided on the 5′ terminal side of the DNA sequence encoding the fused peptide, and a stop codon group was provided on the 3′ terminal side thereof. In a case where the triplet TAG codon is included in the template DNA sequence, the above-described codon is assigned to the codon of chloroacetylated lysine, and thus, the peptide encoded by the above-described DNA sequence is a cyclic peptide in which a thiol group of cysteine and a chloroacetyl group of chloroacetylated lysine spontaneously form a thioether bond.
The cell-free enzymatic synthesis of the polypeptide was performed in a translation solution containing a template DNA, PUREfrex 2.0 (GeneFrontier, PF201-0.25-5), and Aminoacyl tRNA (1). 1.75 μL ([…]) of the template DNA prepared to 50 ng/μL, 2.5 μL of PUREfrex 2.0 Solution I, 0.25 μL of Solution II, 0.5 μL of Solution III, and a dried product of Aminoacyl tRNA (1) (final concentration: 0.5 ng/μL) were mixed and mixture was subjected to a reaction at 37° C. for 1 hour.
The concentration of the enzymatically synthesized peptide was measured using the peptide diluted with Can Get Signal Immunoreaction Enhancer Solution I (TOYOBO, NKB-101), Nano-Glo HiBiT Lytic Detection System (Promega, N3040), and a chemical synthetic peptide for a calibration curve having a known concentration (SEQ ID NO: 33) according to the standard protocol of the Nano-Glo HiBiT Lytic Detection System.
The binding affinity of the enzymatically synthesized peptide to FGFR was measured by evaluating the amount of the peptide bound to FGFR by ELISA.
First, 5 ng of Recombinant Human FGFR1 alpha (IIIc) Fc Chimera Protein (R&D systems, 658-FR-050) was immobilized in each well of a 96-well plate, and blocked with Pierce Protein-Free (PBS) Blocking Buffer (Thermo, 37572), and a peptide diluted with Can Get Signal Immunoreaction Enhancer Solution I (TOYOBO, NKB-101) was then added and reacted at room temperature for 3 hours. After washing with 0.05% Tween 20-containing phosphate buffered saline (PBS), an anti-Myc antibody (Cell Signaling, 14038S) diluted with Can Get Signal Immunoreaction Enhancer Solution II (TOYOBO, NKB-101) was added and reacted at room temperature for 2 hours. After washing with 0.05% Tween 20-containing PBS, SuperSignal ELISA Femto Substrate (Thermo, 37075) was added, and the luminescence amount was measured. The dose-response relationship was calculated from using the difference between the luminescence amount in the well in which FGFR was immobilized and the luminescence amount in the well in which FGFR was not immobilized, and the concentration of the peptide at the time of reaction, and the binding affinity to FGFR was evaluated according to the following evaluation criteria. The evaluation result preferably satisfies the evaluation criteria A, B, or C.
In a case where a value of a luminescence signal emitted by the cyclic peptide set forth in SEQ ID NO: 239 at a reaction concentration of 10 nmol/L is standardized to 1, evaluation criteria of the luminescence signal value emitted by the peptide at a reaction concentration of 10 nmol/L is as follows. • A: 0.7 or more • B: 0.5 or more and less than 0.7 • C: 0.1 or more and less than 0.5 • D: less than 0.1.
With “34 (CRALLRGAPFHLAEC; disulfide 1-15 (inferred)) [compound 34]”, the “Evaluation result of binding affinity to FGFR” value (“Evaluation result” below) was “D (less than 0.1)”.
Consider “35 (CDRTLLYYRLSC; disulfide 1-12 (inferred)) [compound 35]”, for which the “Evaluation result” value was “D (less than 0.1)”.
The result for “36 (CRALLRGAPFHLAEK; not fully specified; Description of Artificial Sequence: Cyclic peptide) [compound 36]” reads “D (less than 0.1)”; that for “37 (CDRTLLYYRLSK; not fully specified; Description of Artificial Sequence: Cyclic peptide) [compound 37]”, “D (less than 0.1)”; that for “38 (ICVYTFDAHAHSLHAALTKI; not fully specified; Description of Artificial Sequence: Cyclic peptide) [compound 38]”, “A (0.7 or more)”.
Take “39 (ACVYTFDAHAHSLHAALTK(COCH2)I; thioether 2-19 (inferred)) [compound 39]”: the “Evaluation result” value was “A (0.7 or more)”.
The value for “40 (GCVYTFDAHAHSLHAALTK(COCH2)I; thioether 2-19 (inferred)) [compound 40]” was “A (0.7 or more)”; that for “41 (PCVYTFDAHAHSLHAALTK(COCH2)I; thioether 2-19 (inferred)) [compound 41]” was “A (0.7 or more)”; that for “42 (LCVYTFDAHAHSLHAALTK(COCH2)I; thioether 2-19 (inferred)) [compound 42]” was “A (0.7 or more)”.
The value for “43 (VCVYTFDAHAHSLHAALTK(COCH2)I; thioether 2-19 (inferred)) [compound 43]” was “A (0.7 or more)”; that for “44 (FCVYTFDAHAHSLHAALTK(COCH2)I; thioether 2-19 (inferred)) [compound 44]” was “A (0.7 or more)”.
The result for “45 (YCVYTFDAHAHSLHAALTK(COCH2)I; thioether 2-19 (inferred)) [compound 45]” reads “A (0.7 or more)”; that for “46 (WCVYTFDAHAHSLHAALTK(COCH2)I; thioether 2-19 (inferred)) [compound 46]”, “B (0.5 or more and less than 0.7)”.
In the case of “47 (NCVYTFDAHAHSLHAALTK(COCH2)I; thioether 2-19 (inferred)) [compound 47]”, the “Evaluation result” value was “A (0.7 or more)”.
The value for “48 (QCVYTFDAHAHSLHAALTK(COCH2)I; thioether 2-19 (inferred)) [compound 48]” was “A (0.7 or more)”.
The value for “49 (SCVYTFDAHAHSLHAALTK(COCH2)I; thioether 2-19 (inferred)) [compound 49]” was “A (0.7 or more)”; that for “50 (TCVYTFDAHAHSLHAALTK(COCH2)I; thioether 2-19 (inferred)) [compound 50]” was “A (0.7 or more)”; that for “51 (DCVYTFDAHAHSLHAALTK(COCH2)I; thioether 2-19 (inferred)) [compound 51]” was “A (0.7 or more)”.
The value for “52 (ECVYTFDAHAHSLHAALTK(COCH2)I; thioether 2-19 (inferred)) [compound 52]” was “A (0.7 or more)”; that for “53 (RCVYTFDAHAHSLHAALTK(COCH2)I; thioether 2-19 (inferred)) [compound 53]” was “A (0.7 or more)”; that for “54 (HCVYTFDAHAHSLHAALTK(COCH2)I; thioether 2-19 (inferred)) [compound 54]” was “A (0.7 or more)”.
As to “55 (ICAYTFDAHAHSLHAALTK(COCH2)I; thioether 2-19 (inferred)) [compound 55]”, the “Evaluation result” value was “C (0.1 or more and less than 0.5)”.

These data come from patent US20260008817A1, “CYCLIC PEPTIDE OR SALT THEREOF, AND USES THEREOF” (FUJIFILM Corporation, priority 2023, published 2026).
